Test results taken from the Human Domainome abundance scans (Beltran et al. 2025).
± gives the uncertainty stated by the source.

B1: Peroxisome proliferator-activated receptor delta, residues 71 to 145; numbered along this chain, Q03181 (parent)
chain: NMECRVCGDKASGFHYGVHACEGCKGFFRRTIRMKLEYEKCERSCKIQKKNRNKCQYCRFQKCLALGMSHNAIRF

Variants of: B1
Test: abundance fitness (aPCA) (normalised: wild type 0, dead -1); higher = more abundant; growth selection in yeast, the domain comes from the species named
Settings: Homo sapiens

Variant	abundance fitness
NMECRVCGDKASGFHYGVHACEGCKGFFRRTIRMKLEYEKCERSCKIQKKNRNKCQYCRFQKCLALGMSHNAMRF [I73M]	0.137 ± 0.051
NMECRVCGDKASGFHYGVHACEGCKGFFRRTIRMKLEYEKCERSCKIQKKNRNKCQYCRFQKCLALGMSHNASRF [I73S]	0.071 ± 0.035
NMECRVCGDKASGFHYGVHACEGCKGFFRRTIRMKLEYEKCERSCKIQKKNRNKCQYCRFQKCLALGMSHNAFRF [I73F]	-0.094 ± 0.069
NMECRVCGDKASGFHYGVHACEGCKGFFRRTIRMKLEYEKCERSCKIQKKNRNKCQYCRFQKCLALGMSHNAGRF [I73G]	0.136 ± 0.033
NMECRVCGDKASGFHYGVHACEGCKGFFRRTIRMKLEYEKCERSCKIQKKNRNKCQYCRFQKCLALGMSHNAERF [I73E]	0.288 ± 0.043
NMECRVCGDKASGFHYGVHACEGCKGFFRRTIRMKLEYEKCERSCKIQKKNRNKCQYCRFQKCLALGMSHNAYRF [I73Y]	-0.097 ± 0.072
NMECRVCGDKASGFHYGVHACEGCKGFFRRTIRMKLEYEKCERSCKIQKKNRNKCQYCRFQKCLALGMSHNAPRF [I73P]	0.215 ± 0.044
NMECRVCGDKASGFHYGVHACEGCKGFFRRTIRMKLEYEKCERSCKIQKKNRNKCQYCRFQKCLALGMSHNAKRF [I73K]	-0.05 ± 0.062
NMECRVCGDKASGFHYGVHACEGCKGFFRRTIRMKLEYEKCERSCKIQKKNRNKCQYCRFQKCLALGMSHNAARF [I73A]	0.202 ± 0.038
NMECRVCGDKASGFHYGVHACEGCKGFFRRTIRMKLEYEKCERSCKIQKKNRNKCQYCRFQKCLALGMSHNAQRF [I73Q]	0.078 ± 0.053
NMECRVCGDKASGFHYGVHACEGCKGFFRRTIRMKLEYEKCERSCKIQKKNRNKCQYCRFQKCLALGMSHNAHRF [I73H]	-0.017 ± 0.069
NMECRVCGDKASGFHYGVHACEGCKGFFRRTIRMKLEYEKCERSCKIQKKNRNKCQYCRFQKCLALGMSHNANRF [I73N]	0.039 ± 0.077
NMECRVCGDKASGFHYGVHACEGCKGFFRRTIRMKLEYEKCERSCKIQKKNRNKCQYCRFQKCLALGMSHNATRF [I73T]	0.184 ± 0.041
NMECRVCGDKASGFHYGVHACEGCKGFFRRTIRMKLEYEKCERSCKIQKKNRNKCQYCRFQKCLALGMSHNARRF [I73R]	-0.117 ± 0.036
NMECRVCGDKASGFHYGVHACEGCKGFFRRTIRMKLEYEKCERSCKIQKKNRNKCQYCRFQKCLALGMSHNADRF [I73D]	0.119 ± 0.055
NMECRVCGDKASGFHYGVHACEGCKGFFRRTIRMKLEYEKCERSCKIQKKNRNKCQYCRFQKCLALGMSHNAWRF [I73W]	-0.152 ± 0.049
NMECRVCGDKASGFHYGVHACEGCKGFFRRTIRMKLEYEKCERSCKIQKKNRNKCQYCRFQKCLALGMSHNALRF [I73L]	0.087 ± 0.037
NMECRVCGDKASGFHYGVHACEGCKGFFRRTIRMKLEYEKCERSCKIQKKNRNKCQYCRFQKCLALGMSHNACRF [I73C]	0.047 ± 0.057

Variant	abundance fitness
NMECRVCGDKASGFHYGVHACEGCKGFFRRTIRMKLEYEKCERSCKIQKKNRNKCQYCRFQKCLALGMSHRAIRF [N71R]	-0.242 ± 0.036
NMECRVCGDKASGFHYGVHACEGCKGFFRRTIRMKLEYEKCERSCKIQKKNRNKCQYCRFQKCLALGMSHVAIRF [N71V]	-0.31 ± 0.046
NMECRVCGDKASGFHYGVHACEGCKGFFRRTIRMKLEYEKCERSCKIQKKNRNKCQYCRFQKCLALGMSHWAIRF [N71W]	-0.362 ± 0.059
NMECRVCGDKASGFHYGVHACEGCKGFFRRTIRMKLEYEKCERSCKIQKKNRNKCQYCRFQKCLALGMSHYAIRF [N71Y]	-0.337 ± 0.089
NMECRVCGDKASGFHYGVHACEGCKGFFRRTIRMKLEYEKCERSCKIQKKNRNKCQYCRFQKCLALGMSHNAIIF [R74I]	0.001 ± 0.11
NMECRVCGDKASGFHYGVHACEGCKGFFRRTIRMKLEYEKCERSCKIQKKNRNKCQYCRFQKCLALGMSHNAIEF [R74E]	0.259 ± 0.052
NMECRVCGDKASGFHYGVHACEGCKGFFRRTIRMKLEYEKCERSCKIQKKNRNKCQYCRFQKCLALGMSHNAIQF [R74Q]	0.284 ± 0.06
NMECRVCGDKASGFHYGVHACEGCKGFFRRTIRMKLEYEKCERSCKIQKKNRNKCQYCRFQKCLALGMSHNAIPF [R74P]	0.151 ± 0.047
NMECRVCGDKASGFHYGVHACEGCKGFFRRTIRMKLEYEKCERSCKIQKKNRNKCQYCRFQKCLALGMSHNAIWF [R74W]	-0.084 ± 0.06
NMECRVCGDKASGFHYGVHACEGCKGFFRRTIRMKLEYEKCERSCKIQKKNRNKCQYCRFQKCLALGMSHNAIMF [R74M]	0.004 ± 0.081
NMECRVCGDKASGFHYGVHACEGCKGFFRRTIRMKLEYEKCERSCKIQKKNRNKCQYCRFQKCLALGMSHNAIVF [R74V]	-0.013 ± 0.061
NMECRVCGDKASGFHYGVHACEGCKGFFRRTIRMKLEYEKCERSCKIQKKNRNKCQYCRFQKCLALGMSHNAIGF [R74G]	0.224 ± 0.038
NMECRVCGDKASGFHYGVHACEGCKGFFRRTIRMKLEYEKCERSCKIQKKNRNKCQYCRFQKCLALGMSHNAINF [R74N]	0.011 ± 0.15
NMECRVCGDKASGFHYGVHACEGCKGFFRRTIRMKLEYEKCERSCKIQKKNRNKCQYCRFQKCLALGMSHNAITF [R74T]	0.071 ± 0.062
NMECRVCGDKASGFHYGVHACEGCKGFFRRTIRMKLEYEKCERSCKIQKKNRNKCQYCRFQKCLALGMSHNAIAF [R74A]	0.079 ± 0.05
NMECRVCGDKASGFHYGVHACEGCKGFFRRTIRMKLEYEKCERSCKIQKKNRNKCQYCRFQKCLALGMSHNAISF [R74S]	0.093 ± 0.046
NMECRVCGDKASGFHYGVHACEGCKGFFRRTIRMKLEYEKCERSCKIQKKNRNKCQYCRFQKCLALGMSHNAIYF [R74Y]	-0.081 ± 0.14
NMECRVCGDKASGFHYGVHACEGCKGFFRRTIRMKLEYEKCERSCKIQKKNRNKCQYCRFQKCLALGMSHNAICF [R74C]	-0.141 ± 0.099
